Where “and” joins values, the source holds several entries; their conditions need not be identical. Equal values may be shown once.
Assays:
[1] = target: the molecule itself; experiment: negative-stain transmission electron microscopy; octamers to filaments; 100 nM (legend; methods: 0.005 mg/ml) GFP-tagged septin hetero-octamers on lipid monolayers of 77.5% Egg-PC, 20% Liver-PI, 2.5% Brain-PI(4,5)P2; 20 mM Tris-HCl pH 8, 2 mM MgCl2, 400 µM GTP, 150 mM NaCl; overnight at 4 °C; 2% uranyl acetate
[2] = target: the molecule itself; experiment: atomic force microscopy; octamers to filaments; 5 nM septin-GFP incubated overnight on 2.5% mol PI(4,5)P2 supported lipid bilayers; imaged at room temperature in 20 mM Tris-HCl pH 8, 2 mM MgCl2, 150 mM NaCl

Protein	stoichiometry N [1]	stoichiometry N [2]
wild-type septin-GFP hetero-octamer (Cdc11-Cdc12-Cdc3-Cdc10-Cdc10-Cdc3-Cdc12-Cdc11) (complex, S. cerevisiae, Cdc11, septin of S. cerevisiae; Cdc12, septin of S. cerevisiae; Cdc3, septin of S. cerevisiae; Cdc10, septin of S. cerevisiae; Tag ends are read from the printed construct names MBP-Cdc12/(6xHis)Cdc3-GFP; The purified complex is named without MBP; also called GFP-tagged septin octamers; wild-type septin-GFP complexes; source: E. coli BL21 (DE3) Rosetta, co-expressed from two plasmids, purified …) chain 1: MSGIIDASSALRKRKHLKRGITFTVMIVGQSGSGRSTFINTLCGQQVVDTSTTILLPTDTSTEIDLQLREETVELEDDEGVKIQLNIIDTPGFGDSLDNSPSFEIISDYIRHQYDEILLEESRVRRNPRFKDGRVHCCLYLINPTGHGLKEIDVEFIRQLGSLVNIIPVISKSDSLTRDELKLNKKLIMEDIDRWNLPIYNFPFDEDEISDEDYETNMYLRTLLPFAIIGSNEVYEMGGDVGTIRGRKYPWGILDVEDSSISDFVILRNALLISHLHDLKNYTHEILYERYRTEALSGESVAAESIRPNLTKLNGSSSSSTTTRRNTNPFKQSNNINNDVLNPASDMHGQSTGENNETYMTREEQIRLEEERLKAFEERVQQELLLKRQELLQREKELREIEARLEKEAKIKQEE chain 2: MSAATATAAPVPPPVGISNLPNQRYKIVNEEGGTFTVMLCGESGLGKTTFINTLFQTVLKRADGQQHRQEPIRKTVEIDITRALLEEKHFELRVNVIDTPGFGDNVNNNKAWQPLVDFIDDQHDSYMRQEQQPYRTKKFDLRVHAVLYFIRPTGHGLKPIDIETMKRLSTRANLIPVIAKADTLTAQELQQFKSRIRQVIEAQEIRIFTPPLDADSKEDAKSGSNPDSAAVEHARQLIEAMPFAIVGSEKKFDNGQGTQVVARKYPWGLVEIENDSHCDFRKLRALLLRTYLLDLISTTQEMHYETYRRLRLEGHENTGEGNEDFTLPAIAPARKLSHNPRYKEEENALKKYFTDQVKAEEQRFRQWEQNIVNERIRLNGDLEEIQGKVKKLEEQVKSLQVKKSHLK chain 3: MSLKEEQVSIKQDPEQEERQHDQFNDVQIKQESQDHDGVDSQYTNGTQNDDSERFEAAESDVKVEPGLGMGITSSQSEKGQVLPDQPEIKFIRRQINGYVGFANLPKQWHRRSIKNGFSFNLLCVGPDGIGKTTLMKTLFNNDDIEANLVKDYEEELANDQEEEEGQGEGHENQSQEQRHKVKIKSYESVIEENGVKLNLNVIDTEGFGDFLNNDQKSWDPIIKEIDSRFDQYLDAENKINRHSINDKRIHACLYFIEPTGHYLKPLDLKFMQSVYEKCNLIPVIAKSDILTDEEILSFKKTIMNQLIQSNIELFKPPIYSNDDAENSHLSERLFSSLPYAVIGSNDIVENYSGNQVRGRSYPWGVIEVDNDNHSDFNLLKNLLIKQFMEELKERTSKILYENYRSSKLAKLGIKQDNSVFKEFDPISKQQEEKTLHEAKLAKLEIEMKTVFQQKVSEKEKKLQKSETELFARHKEMKEKLTKQLKALEDKKKQLELSINSASPNVNHSPVPTKKKGFLR chain 4: MDPLSSVQPASYVGFDTITNQIEHRLLKKGFQFNIMVVGQSGLGKSTLINTLFASHLIDSATGDDISALPVTKTTEMKISTHTLVEDRVRLNINVIDTPGFGDFIDNSKAWEPIVKYIKEQHSQYLRKELTAQRERFITDTRVHAILYFLQPNGKELSRLDVEALKRLTEIANVIPVIGKSDTLTLDERTEFRELIQNEFEKYNFKIYPYDSEELTDEELELNRSVRSIIPFAVVGSENEIEINGETFRGRKTRWSAINVEDINQCDFVYLREFLIRTHLQDLIETTSYIHYEGFRARQLIALKENANSRSSAHMSSNAIQR	2 octamers and 3 octamers	5 octamers
septin-GFP hetero-octamer containing ΔCTE-Cdc12 (deletion of the C-terminal extension of Cdc12, residues 339-407) (complex, S. cerevisiae, Cdc11, septin of S. cerevisiae; Cdc12, septin of S. cerevisiae; Cdc3, septin of S. cerevisiae; Cdc10, septin of S. cerevisiae; also called ΔCTE-Cdc12 mutant; Cdc12 mutants; source: E. coli BL21 (DE3) Rosetta, co-expressed, purified (amylose resin, Ni-NTA-agarose), same protocol as wild type; not shown: GFP, C-terminal, kept; copies: 2 + 2 + 2 + 2) chain 1: MSGIIDASSALRKRKHLKRGITFTVMIVGQSGSGRSTFINTLCGQQVVDTSTTILLPTDTSTEIDLQLREETVELEDDEGVKIQLNIIDTPGFGDSLDNSPSFEIISDYIRHQYDEILLEESRVRRNPRFKDGRVHCCLYLINPTGHGLKEIDVEFIRQLGSLVNIIPVISKSDSLTRDELKLNKKLIMEDIDRWNLPIYNFPFDEDEISDEDYETNMYLRTLLPFAIIGSNEVYEMGGDVGTIRGRKYPWGILDVEDSSISDFVILRNALLISHLHDLKNYTHEILYERYRTEALSGESVAAESIRPNLTKLNGSSSSSTTTRRNTNPFKQSNNINNDVLNPASDMHGQSTGENNETYMTREEQIRLEEERLKAFEERVQQELLLKRQELLQREKELREIEARLEKEAKIKQEE chain 2: MSAATATAAPVPPPVGISNLPNQRYKIVNEEGGTFTVMLCGESGLGKTTFINTLFQTVLKRADGQQHRQEPIRKTVEIDITRALLEEKHFELRVNVIDTPGFGDNVNNNKAWQPLVDFIDDQHDSYMRQEQQPYRTKKFDLRVHAVLYFIRPTGHGLKPIDIETMKRLSTRANLIPVIAKADTLTAQELQQFKSRIRQVIEAQEIRIFTPPLDADSKEDAKSGSNPDSAAVEHARQLIEAMPFAIVGSEKKFDNGQGTQVVARKYPWGLVEIENDSHCDFRKLRALLLRTYLLDLISTTQEMHYETYRRLRLEGHENTGEGNEDFTLPAIAPARKLSH chain 3: MSLKEEQVSIKQDPEQEERQHDQFNDVQIKQESQDHDGVDSQYTNGTQNDDSERFEAAESDVKVEPGLGMGITSSQSEKGQVLPDQPEIKFIRRQINGYVGFANLPKQWHRRSIKNGFSFNLLCVGPDGIGKTTLMKTLFNNDDIEANLVKDYEEELANDQEEEEGQGEGHENQSQEQRHKVKIKSYESVIEENGVKLNLNVIDTEGFGDFLNNDQKSWDPIIKEIDSRFDQYLDAENKINRHSINDKRIHACLYFIEPTGHYLKPLDLKFMQSVYEKCNLIPVIAKSDILTDEEILSFKKTIMNQLIQSNIELFKPPIYSNDDAENSHLSERLFSSLPYAVIGSNDIVENYSGNQVRGRSYPWGVIEVDNDNHSDFNLLKNLLIKQFMEELKERTSKILYENYRSSKLAKLGIKQDNSVFKEFDPISKQQEEKTLHEAKLAKLEIEMKTVFQQKVSEKEKKLQKSETELFARHKEMKEKLTKQLKALEDKKKQLELSINSASPNVNHSPVPTKKKGFLR chain 4: MDPLSSVQPASYVGFDTITNQIEHRLLKKGFQFNIMVVGQSGLGKSTLINTLFASHLIDSATGDDISALPVTKTTEMKISTHTLVEDRVRLNINVIDTPGFGDFIDNSKAWEPIVKYIKEQHSQYLRKELTAQRERFITDTRVHAILYFLQPNGKELSRLDVEALKRLTEIANVIPVIGKSDTLTLDERTEFRELIQNEFEKYNFKIYPYDSEELTDEELELNRSVRSIIPFAVVGSENEIEINGETFRGRKTRWSAINVEDINQCDFVYLREFLIRTHLQDLIETTSYIHYEGFRARQLIALKENANSRSSAHMSSNAIQR	~4 octamers	–
septin-GFP hetero-octamer containing ΔAH-Cdc12 (C-terminal deletion of Cdc12 residues 390-407) (complex, S. cerevisiae, Cdc11, septin of S. cerevisiae; Cdc12, septin of S. cerevisiae; Cdc3, septin of S. cerevisiae; Cdc10, septin of S. cerevisiae; also called ΔAH-Cdc12 mutant; ΔAH mutant; source: E. coli BL21 (DE3) Rosetta, co-expressed, purified (amylose resin, Ni-NTA-agarose), same protocol as wild type; not shown: GFP, C-terminal, kept; copies: 2 + 2 + 2 + 2) chain 1: MSGIIDASSALRKRKHLKRGITFTVMIVGQSGSGRSTFINTLCGQQVVDTSTTILLPTDTSTEIDLQLREETVELEDDEGVKIQLNIIDTPGFGDSLDNSPSFEIISDYIRHQYDEILLEESRVRRNPRFKDGRVHCCLYLINPTGHGLKEIDVEFIRQLGSLVNIIPVISKSDSLTRDELKLNKKLIMEDIDRWNLPIYNFPFDEDEISDEDYETNMYLRTLLPFAIIGSNEVYEMGGDVGTIRGRKYPWGILDVEDSSISDFVILRNALLISHLHDLKNYTHEILYERYRTEALSGESVAAESIRPNLTKLNGSSSSSTTTRRNTNPFKQSNNINNDVLNPASDMHGQSTGENNETYMTREEQIRLEEERLKAFEERVQQELLLKRQELLQREKELREIEARLEKEAKIKQEE chain 2: MSAATATAAPVPPPVGISNLPNQRYKIVNEEGGTFTVMLCGESGLGKTTFINTLFQTVLKRADGQQHRQEPIRKTVEIDITRALLEEKHFELRVNVIDTPGFGDNVNNNKAWQPLVDFIDDQHDSYMRQEQQPYRTKKFDLRVHAVLYFIRPTGHGLKPIDIETMKRLSTRANLIPVIAKADTLTAQELQQFKSRIRQVIEAQEIRIFTPPLDADSKEDAKSGSNPDSAAVEHARQLIEAMPFAIVGSEKKFDNGQGTQVVARKYPWGLVEIENDSHCDFRKLRALLLRTYLLDLISTTQEMHYETYRRLRLEGHENTGEGNEDFTLPAIAPARKLSHNPRYKEEENALKKYFTDQVKAEEQRFRQWEQNIVNERIRLNGDLEEIQGKV chain 3: MSLKEEQVSIKQDPEQEERQHDQFNDVQIKQESQDHDGVDSQYTNGTQNDDSERFEAAESDVKVEPGLGMGITSSQSEKGQVLPDQPEIKFIRRQINGYVGFANLPKQWHRRSIKNGFSFNLLCVGPDGIGKTTLMKTLFNNDDIEANLVKDYEEELANDQEEEEGQGEGHENQSQEQRHKVKIKSYESVIEENGVKLNLNVIDTEGFGDFLNNDQKSWDPIIKEIDSRFDQYLDAENKINRHSINDKRIHACLYFIEPTGHYLKPLDLKFMQSVYEKCNLIPVIAKSDILTDEEILSFKKTIMNQLIQSNIELFKPPIYSNDDAENSHLSERLFSSLPYAVIGSNDIVENYSGNQVRGRSYPWGVIEVDNDNHSDFNLLKNLLIKQFMEELKERTSKILYENYRSSKLAKLGIKQDNSVFKEFDPISKQQEEKTLHEAKLAKLEIEMKTVFQQKVSEKEKKLQKSETELFARHKEMKEKLTKQLKALEDKKKQLELSINSASPNVNHSPVPTKKKGFLR chain 4: MDPLSSVQPASYVGFDTITNQIEHRLLKKGFQFNIMVVGQSGLGKSTLINTLFASHLIDSATGDDISALPVTKTTEMKISTHTLVEDRVRLNINVIDTPGFGDFIDNSKAWEPIVKYIKEQHSQYLRKELTAQRERFITDTRVHAILYFLQPNGKELSRLDVEALKRLTEIANVIPVIGKSDTLTLDERTEFRELIQNEFEKYNFKIYPYDSEELTDEELELNRSVRSIIPFAVVGSENEIEINGETFRGRKTRWSAINVEDINQCDFVYLREFLIRTHLQDLIETTSYIHYEGFRARQLIALKENANSRSSAHMSSNAIQR	~4 octamers	–

From article doi:10.1101/2024.03.19.585775, “Septin filament assembly assist the lateral organization of membranes” (bioRxiv, 2024)
